Target: H1 HA (recombinant HA of Figure 4E) (Influenza A virus, H1 subtype; strain …, UniProt A0A1J0CXU0)
Assay: BLI

B1: 789-203-3C12 AA variant mAb (Cys33Ala/Cys52Ala heavy chain with the 789-203-3C12 light chain), IgG (antibody, V domains shown)
VH: QVQLQESGPGLVKPSEILSLTCAVSGGSFSSYAWGWIRQPPGKGLEWIGSIAGSGGSNYLNPSLKSRVTLSVDTSKNQFSLILNSVTAADTAVYYCAREGITIFGVVIPRVLDSWGQGAVVTVSS
VL: DIQMTQSPSSLSASVGDTVTITCRASQSISSWLAWYQQKPGKAPNLLIYRASTLQSGVPSRFSGSGSGTDFTLTISSLQSEDFATYFCQQSTSSPFTFGPGTKLDIK
binding result: binds

Reference: paper PMC9772109 (Immunity, 2022)
